IL-6 dependent response of the α2-macroglobulin luciferase reporter gene in HepG2 cells (fold) and IL-6 response of the α2-macroglobulin luciferase reporter gene in HepG2 cells with increasing Stat3 and extra c-Jun (fold above background) data for one substance are collected here from US20020197647A1.

For this test, the target named is full-length c-Jun (Rattus norvegicus (Rat)) (UniProt P17325). Briefly: cell-based or functional assay.

“wild-type Stat3 (transfected, expression vector pRcCMV) (from UniProt P42227 1-770)” returned an IL-6 dependent response of the α2-macroglobulin luciferase reporter gene in HepG2 cells (fold) of 30 fold; an IL-6 response of the α2-macroglobulin luciferase reporter gene in HepG2 cells with increasing Stat3 and extra c-Jun (fold above background) of 4.
